In patent US20030166567:

Assays:
[1] = test system: 9-mer (SEQ ID NO:12) cleavage domain peptide
[2] = test system: 10-mer (SEQ ID NO:13) cleavage domain peptide
[3] = test system: 19-mer (SEQ ID NO:11) cleavage domain peptide

Active MMP-9 enzyme, sequence (chain, as listed by the source): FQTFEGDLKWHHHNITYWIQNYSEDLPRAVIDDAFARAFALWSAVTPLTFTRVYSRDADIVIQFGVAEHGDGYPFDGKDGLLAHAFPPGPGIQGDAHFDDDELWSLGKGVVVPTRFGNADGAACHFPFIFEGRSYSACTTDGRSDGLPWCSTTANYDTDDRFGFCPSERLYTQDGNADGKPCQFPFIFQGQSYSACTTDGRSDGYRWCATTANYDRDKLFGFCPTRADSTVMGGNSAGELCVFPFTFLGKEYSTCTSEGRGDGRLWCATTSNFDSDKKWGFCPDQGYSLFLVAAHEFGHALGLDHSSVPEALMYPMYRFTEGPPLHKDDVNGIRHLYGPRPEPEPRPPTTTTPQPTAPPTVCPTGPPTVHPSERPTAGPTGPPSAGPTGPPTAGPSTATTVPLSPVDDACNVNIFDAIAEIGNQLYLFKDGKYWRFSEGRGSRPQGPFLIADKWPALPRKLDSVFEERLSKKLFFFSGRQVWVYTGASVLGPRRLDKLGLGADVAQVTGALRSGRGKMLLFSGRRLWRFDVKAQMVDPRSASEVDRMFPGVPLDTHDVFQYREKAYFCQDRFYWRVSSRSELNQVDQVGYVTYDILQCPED

In the case of Active MMP-9 enzyme, the “extended time course of MMP-9 catalyzed hydrolysis of collagen” value (“extended time course” for short) [1] is reported as “The 10-mer (SEQ ID NO:13) peptide is less effective at preventing the destruction of collagen at long time points (FIG. 9) than is the 9-mer (SEQ ID NO:12) peptide (FIG. 10)”, the “extended time course” value [2] is reported as “The 10-mer (SEQ ID NO:13) peptide is less effective at preventing the destruction of collagen at long time points (FIG. 9) than is the 9-mer (SEQ ID NO:12) peptide (FIG. 10)” and the “extended time course” value [3] is reported as “the 19-mer (SEQ ID NO:11) effectively inhibits the MMP-9 catalyzed hydrolysis of collagen to beyond 1000 minutes”.
